From PMC12884772, “Macrophagic Sclerostin Loop2‐ApoER2 Interaction Required by Sclerostin for Cardiovascular Protective Action” (Advanced Science, 2025)

Biological target: T1, ApoER2 (Mus musculus, UniProt Q924X6)
T1 construct: FLAG; expressed in transfected cells; host or cells: RAW264.7
T1 sequence (Q924X6 29-996): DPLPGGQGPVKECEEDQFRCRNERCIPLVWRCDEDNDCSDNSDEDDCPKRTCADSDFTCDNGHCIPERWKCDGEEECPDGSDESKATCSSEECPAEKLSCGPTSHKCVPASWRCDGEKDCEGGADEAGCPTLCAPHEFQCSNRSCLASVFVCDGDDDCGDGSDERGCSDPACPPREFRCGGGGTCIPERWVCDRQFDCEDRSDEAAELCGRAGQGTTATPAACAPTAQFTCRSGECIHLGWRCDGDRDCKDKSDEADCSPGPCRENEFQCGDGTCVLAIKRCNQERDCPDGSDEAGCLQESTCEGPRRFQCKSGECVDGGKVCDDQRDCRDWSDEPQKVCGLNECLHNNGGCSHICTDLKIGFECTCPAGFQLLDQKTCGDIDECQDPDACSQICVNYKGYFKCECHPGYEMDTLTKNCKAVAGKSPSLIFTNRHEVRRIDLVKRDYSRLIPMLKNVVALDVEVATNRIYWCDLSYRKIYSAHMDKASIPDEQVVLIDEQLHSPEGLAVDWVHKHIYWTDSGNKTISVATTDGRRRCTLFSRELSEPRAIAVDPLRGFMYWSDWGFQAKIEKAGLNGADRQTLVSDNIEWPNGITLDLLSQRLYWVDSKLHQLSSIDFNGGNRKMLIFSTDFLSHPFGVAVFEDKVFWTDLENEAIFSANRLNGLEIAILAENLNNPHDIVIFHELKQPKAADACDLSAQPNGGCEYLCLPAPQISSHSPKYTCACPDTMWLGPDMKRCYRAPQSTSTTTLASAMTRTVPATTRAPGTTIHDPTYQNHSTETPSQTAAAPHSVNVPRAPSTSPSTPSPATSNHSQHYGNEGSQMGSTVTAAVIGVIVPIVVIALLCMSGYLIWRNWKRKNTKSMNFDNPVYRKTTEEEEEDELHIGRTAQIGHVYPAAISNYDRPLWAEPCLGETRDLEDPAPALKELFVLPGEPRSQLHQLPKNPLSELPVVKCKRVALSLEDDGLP
Test: Pull‐down assay of ApoER2 by His‐tagged full‐length/truncated/mutated sclerostin in macrophages (RAW264.7)
Format: binding
Conditions: RAW264.7 lysate, Ni‐NTA beads, western blot; Figure 6A, S6A
Experimental: The interaction of full‐length (FL)/truncated ApoER2 with full‐length (FL) /truncated sclerostin in macrophages (RAW264.7) were determined by pull‐down assay and Co‐IP assay. The binding affinity of ApoER2 to FL sclerostin and sclerostin loop2 were determined by biolayer interferometry (BLI) analysis. Moreover, the binding of sclerostin to ApoER2 on macrophages (RAW264.7) was examined by confocal microscopy.
The interaction residues within ApoER2 to sclerostin loop2 were determined in combination with pull‐down assay and BLI analysis. Based on the interaction residues within ApoER2 to sclerostin loop2, a series of Lrp8 mutations were developed. Based on the interaction residues within sclerostin loop2 to ApoER2, a series of sost mutations were developed.
Cell lysates were collected using RIPA Lysis and Extraction Buffer (Thermo Scientific, 89 901) supplemented with Protease Inhibitor Cocktail (CST, 5871) and centrifuged at 4000 rpm for 30 min at 4 °C, and replaced with binding buffer (PBS buffer, 20 mM imidazole, pH 8.0). […]
The eluted liquid from pull‐down assay was then mixed with SDS‐PAGE loading buffer and boiled for 10 min at 95 °C to make samples. […] The ECL solution (BIO‐RAD, 1 705 061) was used to visualize detected proteins. […]

- Pull‐down of FLAG‐ApoER2 by the His‐tagged protein/peptide: pulled
Substance: sclerostin: recombinant human/mouse full‐length sclerostin protein
